From patent US8357515

Tested on: LAP-MMP IL-4

MMP-1, recombinant, sequence (P03956 100-469): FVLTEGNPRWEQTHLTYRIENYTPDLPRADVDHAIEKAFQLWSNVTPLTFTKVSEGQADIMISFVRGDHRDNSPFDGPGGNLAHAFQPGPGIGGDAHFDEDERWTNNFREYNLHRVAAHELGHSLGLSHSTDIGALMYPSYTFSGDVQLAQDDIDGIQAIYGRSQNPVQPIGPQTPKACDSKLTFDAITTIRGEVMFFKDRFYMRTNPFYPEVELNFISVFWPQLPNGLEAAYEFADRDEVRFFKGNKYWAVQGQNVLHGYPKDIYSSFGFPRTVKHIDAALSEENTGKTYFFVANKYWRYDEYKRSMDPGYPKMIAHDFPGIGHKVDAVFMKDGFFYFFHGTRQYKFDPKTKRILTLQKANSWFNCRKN

MMP-1, recombinant
cleavage of the fusion protein in 293T supernatant after overnight incubation at 37 C, Western blot probed with anti-IL-4 antibody: LAP-MMP IL-4 is only cleaved by MMP-1
